For this assay, the target named is T1, HuCDCP1-C (Homo sapiens, UniProt Q9H5V8).
T1 construct: made in house; host or cells: HEK-293T
T1 sequence (Q9H5V8 30-667): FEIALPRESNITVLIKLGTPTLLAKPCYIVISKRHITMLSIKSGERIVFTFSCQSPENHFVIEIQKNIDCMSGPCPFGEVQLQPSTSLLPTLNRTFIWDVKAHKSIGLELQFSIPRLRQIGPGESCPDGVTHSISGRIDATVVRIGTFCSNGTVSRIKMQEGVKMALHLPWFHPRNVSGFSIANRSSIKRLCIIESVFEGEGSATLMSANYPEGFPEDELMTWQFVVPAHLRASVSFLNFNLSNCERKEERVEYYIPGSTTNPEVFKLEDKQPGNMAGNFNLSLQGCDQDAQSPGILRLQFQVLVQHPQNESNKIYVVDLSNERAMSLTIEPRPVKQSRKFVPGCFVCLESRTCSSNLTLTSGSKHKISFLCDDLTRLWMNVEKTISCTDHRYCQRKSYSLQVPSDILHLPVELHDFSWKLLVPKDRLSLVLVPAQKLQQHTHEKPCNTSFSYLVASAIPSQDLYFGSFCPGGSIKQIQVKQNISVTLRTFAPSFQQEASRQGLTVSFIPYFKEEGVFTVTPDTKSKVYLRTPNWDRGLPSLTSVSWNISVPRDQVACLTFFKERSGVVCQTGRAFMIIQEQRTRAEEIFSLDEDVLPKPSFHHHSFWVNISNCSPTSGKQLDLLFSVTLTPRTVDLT
Description: Caterra affinity of humanized anti-CDCP1 antibodies. The conditions noted are these: HuCDCP1-C 2 μg/ml immobilized. The assay is classed as binding. As to the method:
The humanized anti-CDCP1 antibodies obtained from Example 11 were subjected to gene cloning, constructed into pTT5 expression vector for a small amount of expression in CHO cells (Expi-CHOS: Gibco A29127), and purified with an Fc affinity column (AT Protein A Diamond Plus. No. AA402312). Antibody purity was analyzed by HPLC and determined by Nanodrop. High-throughput affinity assay was carried out for a small amount of antibodies by Caterra.

B1: 1CP-151: humanized anti-CDCP1 antibody produced by 8C9; VH SEQ ID NO: 343, VL SEQ ID NO: 354 (antibody, V domains shown)
VH: EVQLVESGGGLVQPGRSLRLSCTASGLTFTHYHMSWFRQAPGKGLEWVAIIRNKAYGYTTDYSASVRGRFTISRDDSKSILYLQMNSLKTEDTAVYYCVREGGYGYDGTFAYWGQGTLVTVSS
VL: DIQMTQSPSSLSASVGDRVTITCRASESVDNYGISFMNWFQQKPGQAPKLLIYAASNQGSGVPSRFSGSGSGTDFTLTISSMQPEDFATYYCQQSKEVPRTFGGGTKVEIK
modifications: humanized antibody 8C9 heavy chain variable region 01; humanized antibody 8C9 light chain variable region 01
For the molecule B1, the “ka” value is 158000 M⁻¹ s⁻¹ and the “kd” value came to 0.00302 s⁻¹.

B2: 1CP-153: humanized anti-CDCP1 antibody produced by 8C9; VH SEQ ID NO: 345, VL SEQ ID NO: 354 (antibody, V domains shown)
VH: EVQLVESGGGLVQPGRSLRLSCTTSGLTFTHYHMSWVRQAPGKGPEWVAIIRNKAYGYTTDYSASVRGRFTISRDDSKSILYLQMNSLKTEDTAVYYCVREGGYGYDGTFAYWGQGTLVTVSS
VL: DIQMTQSPSSLSASVGDRVTITCRASESVDNYGISFMNWFQQKPGQAPKLLIYAASNQGSGVPSRFSGSGSGTDFTLTISSMQPEDFATYYCQQSKEVPRTFGGGTKVEIK
modifications: humanized antibody 8C9 heavy chain variable region 03; humanized antibody 8C9 light chain variable region 01
On to B2, for which the “ka” value was 108000 M⁻¹ s⁻¹ and the “kd” value is 0.000388 s⁻¹.

B3: 1CP-154: humanized anti-CDCP1 antibody produced by 8C9; VH SEQ ID NO: 346, VL SEQ ID NO: 354 (antibody, V domains shown)
VH: EVQLVESGGGLVQPGRSLRLSCTTSGLTFTHYHMSWVRQPPGKAPEWVAIIRNKAYGYTTDYSASVRGRFTISRDDSKSILYLQMNSLKTEDTAVYYCVREGGYGYDGTFAYWGQGTLVTVSS
VL: DIQMTQSPSSLSASVGDRVTITCRASESVDNYGISFMNWFQQKPGQAPKLLIYAASNQGSGVPSRFSGSGSGTDFTLTISSMQPEDFATYYCQQSKEVPRTFGGGTKVEIK
modifications: humanized antibody 8C9 heavy chain variable region 04; humanized antibody 8C9 light chain variable region 01
As for B3, the “ka” value stood at 118000 M⁻¹ s⁻¹ and the “kd” value was 0.000346 s⁻¹.

B4: 1CP-127: humanized anti-CDCP1 antibody produced by 3C11; VH SEQ ID NO: 342, VL SEQ ID NO: 351 (antibody, V domains shown)
VH: QVQLVQSGAEVKKPGASVKVSCKASGYNFISYWLHWVRQAPGQGLEWMGGIYPGNTDTTYNQKFKGRVTVTAVTSTSTVYMELSSLRSEDTAVYYCIRYDYDRGMDYWGQGTLVTVSS
VL: DIQMTQSPSSLSASVGDRVTITCRASEDIYYRLAWYQQKPGKAPKLLISGATALETGVPSRFSGSGSGKDYTFTISSLQPEDIATYYCQHYWNIPWTFGQGTKVEIK
modifications: humanized antibody 3C11 heavy chain variable region 04; humanized antibody 3C11 light chain variable region 01
Take B4: the “ka” value amounted to 205000 M⁻¹ s⁻¹ and the “kd” value stood at 0.00198 s⁻¹.

B5: 1CP-132: humanized anti-CDCP1 antibody produced by 3C11; VH SEQ ID NO: 339, VL SEQ ID NO: 353 (antibody, V domains shown)
VH: QVQLVQSGAEVKKPGASVKVSCKASGYNFISYWLHWVRQAPGQGLEWMGGIYPGNTDTTYNQKFKGRVTMTRDTSTSTVYMELSSLRSEDTAVYYCIRYDYDRGMDYWGQGTLVTVSS
VL: DIQMTQSPSSLSASVGDRVTITCRASEDIYYRLAWYQQKPGNAPKLLISGATALETGVPSRFSGSGSGKDYTLTISSLQPEDIATYYCQHYWNIPWTFGQGTKVEIK
modifications: humanized antibody 3C11 heavy chain variable region 01; humanized antibody 3C11 light chain variable region 03
As for B5, the “ka” value came out at 140000 M⁻¹ s⁻¹ and the “kd” value was found to be 1e-05 s⁻¹.

B6: 1CP-133: humanized anti-CDCP1 antibody produced by 3C11; VH SEQ ID NO: 340, VL SEQ ID NO: 353 (antibody, V domains shown)
VH: QVQLVQSGAEVKKPGASVKVSCKASGYNFISYWLHWVRQAPGQGLEWMGGIYPGNTDTTYNQKFKGRVTMTADTSTSTVYMELSSLRSEDTAVYYCIRYDYDRGMDYWGQGTLVTVSS
VL: DIQMTQSPSSLSASVGDRVTITCRASEDIYYRLAWYQQKPGNAPKLLISGATALETGVPSRFSGSGSGKDYTLTISSLQPEDIATYYCQHYWNIPWTFGQGTKVEIK
modifications: humanized antibody 3C11 heavy chain variable region 02; humanized antibody 3C11 light chain variable region 03
On to B6, for which the “ka” value came out at 183000 M⁻¹ s⁻¹ and the “kd” value stood at 1e-05 s⁻¹.

B7: 1CP-131: humanized anti-CDCP1 antibody produced by 3C11; VH SEQ ID NO: 342, VL SEQ ID NO: 352 (antibody, V domains shown)
VH: QVQLVQSGAEVKKPGASVKVSCKASGYNFISYWLHWVRQAPGQGLEWMGGIYPGNTDTTYNQKFKGRVTVTAVTSTSTVYMELSSLRSEDTAVYYCIRYDYDRGMDYWGQGTLVTVSS
VL: DIQMTQSPSSLSASVGDRVTITCRASEDIYYRLAWYQQKPGKAPKLLISGATALETGVPSRFSGSGSGKDYTLTISSLQPEDIATYYCQHYWNIPWTFGQGTKVEIK
modifications: humanized antibody 3C11 heavy chain variable region 04; humanized antibody 3C11 light chain variable region 02
Consider B7, for which the “ka” value was determined as 191000 M⁻¹ s⁻¹ and the “kd” value is 0.002 s⁻¹.

B8: 1CP-135: humanized anti-CDCP1 antibody produced by 3C11; VH SEQ ID NO: 342, VL SEQ ID NO: 353 (antibody, V domains shown)
VH: QVQLVQSGAEVKKPGASVKVSCKASGYNFISYWLHWVRQAPGQGLEWMGGIYPGNTDTTYNQKFKGRVTVTAVTSTSTVYMELSSLRSEDTAVYYCIRYDYDRGMDYWGQGTLVTVSS
VL: DIQMTQSPSSLSASVGDRVTITCRASEDIYYRLAWYQQKPGNAPKLLISGATALETGVPSRFSGSGSGKDYTLTISSLQPEDIATYYCQHYWNIPWTFGQGTKVEIK
modifications: humanized antibody 3C11 heavy chain variable region 04; humanized antibody 3C11 light chain variable region 03
Take B8: the “ka” value amounted to 249000 M⁻¹ s⁻¹ and the “kd” value stood at 0.0012 s⁻¹.

The values are drawn from patent US20260250410A1, “ANTIBODY AND USE THEREOF” (SICHUAN HUIYU PHARMACEUTICAL CO., LTD., priority 2022, published 2026).
